One experiment has as its target human ferritin (human) (UniProt P02794). Kind of experiment: method not stated.
Experiment [1] concerns the target ferritin of fixed and permeabilized CAPAN-1 cells (human) (UniProt P02794). Kind of experiment: 111In-labelled antibody on fixed and permeabilized CAPAN-1 cells, Lindmo linear extrapolation.
Experiment [2] has as its target human liver ferritin, Calbiochem (human) (UniProt P02794). Kind of experiment: solid-phase RIA, 111In-labelled antibody, ferritin immobilised at 5 ug/ml on tubes.
Experiment [3] shares this target. The experiment in a line: solid-phase RIA, 90Y-labelled antibody, ferritin immobilised at 5 ug/ml on tubes.

ferritin of fixed and permeabilized CAPAN-1 cells (human), sequence (P02794 whole entry, chain 1 of 2): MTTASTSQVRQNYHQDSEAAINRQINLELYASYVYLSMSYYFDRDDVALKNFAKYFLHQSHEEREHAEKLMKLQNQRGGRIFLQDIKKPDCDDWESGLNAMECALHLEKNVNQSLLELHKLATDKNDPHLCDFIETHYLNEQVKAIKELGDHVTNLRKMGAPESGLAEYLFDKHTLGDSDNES
ferritin of fixed and permeabilized CAPAN-1 cells (human), sequence (P02792 2-175, chain 2 of 2, further chain): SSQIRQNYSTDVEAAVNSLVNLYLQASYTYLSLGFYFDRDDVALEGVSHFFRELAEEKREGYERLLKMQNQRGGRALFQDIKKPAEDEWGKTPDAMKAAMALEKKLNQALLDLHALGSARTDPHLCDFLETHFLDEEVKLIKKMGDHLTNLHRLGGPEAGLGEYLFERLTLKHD
human liver ferritin, Calbiochem (human), sequence (P02794 2-183 limits assumed, chain 1 of 2): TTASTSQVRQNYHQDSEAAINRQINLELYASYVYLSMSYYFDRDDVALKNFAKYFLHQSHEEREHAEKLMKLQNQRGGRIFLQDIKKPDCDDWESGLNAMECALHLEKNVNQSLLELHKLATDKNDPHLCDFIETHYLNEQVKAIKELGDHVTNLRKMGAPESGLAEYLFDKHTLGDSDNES
human liver ferritin, Calbiochem (human), sequence (P02792 2-175 limits assumed, chain 2 of 2, further chain): as the sequence (P02792 2-175, chain 2 of 2, further chain) above
human ferritin (human), sequence (P02794 2-183 limits assumed, chain 1 of 2): as the sequence (P02794 2-183 limits assumed, chain 1 of 2) above
human ferritin (human), sequence (P02792 2-175 limits assumed, chain 2 of 2, further chain): as the sequence (P02792 2-175, chain 2 of 2, further chain) above

B1: AMB8LK monoclonal IgG1 anti-ferritin antibody (murine, unconjugated) (antibody, from another filing, V domains shown)
VH: QVQLKESGPGLVAPSQSLSITCTVSGFSLSRYSVHWVRQPPGKGLEWLGTIWGGGSTDYNSVLKSRLSISKDNSKSQVLLKVNSLQTDDTAIYYCASGPYYYTMDYWGQGTSVTVSS
VL: QIVLTQSPAILSASLGEEITLTCSASSSVTFMHWYQQKSGTSPKLLIYTTSNLASGVPSRFSGSGSGTFYSLTISSVEAEDAADYYCHQWSSYPTFGSGTKLEIKR
In the case of B1, the Kd with human ferritin (human) amounted to 5.1 nM.

B2: Bz-DTPA-AMB8LK (antibody, from another filing, V domains shown)
VH: QVQLKESGPGLVAPSQSLSITCTVSGFSLSRYSVHWVRQPPGKGLEWLGTIWGGGSTDYNSVLKSRLSISKDNSKSQVLLKVNSLQTDDTAIYYCASGPYYYTMDYWGQGTSVTVSS
VL: QIVLTQSPAILSASLGEEITLTCSASSSVTFMHWYQQKSGTSPKLLIYTTSNLASGVPSRFSGSGSGTFYSLTISSVEAEDAADYYCHQWSSYPTFGSGTKLEIKR
With B2, the immunoreactive fraction in experiment [1] was 52%. For the same molecule, the percentage of bound antibody in experiment [2] was found to be 87%; in experiment [3], 100%.

B3: Bz-DOTA-AMB8LK (antibody, from another filing, V domains shown)
VH: QVQLKESGPGLVAPSQSLSITCTVSGFSLSRYSVHWVRQPPGKGLEWLGTIWGGGSTDYNSVLKSRLSISKDNSKSQVLLKVNSLQTDDTAIYYCASGPYYYTMDYWGQGTSVTVSS
VL: QIVLTQSPAILSASLGEEITLTCSASSSVTFMHWYQQKSGTSPKLLIYTTSNLASGVPSRFSGSGSGTFYSLTISSVEAEDAADYYCHQWSSYPTFGSGTKLEIKR
Take B3: the immunoreactive fraction in experiment [1] was 24%. Moreover, the percentage of bound antibody in experiment [2] turned out to be 76.8%; in experiment [3], 73.2%.

B4: Bz-CHX-A"-DTPA-AMB8LK (antibody, from another filing, V domains shown)
VH: QVQLKESGPGLVAPSQSLSITCTVSGFSLSRYSVHWVRQPPGKGLEWLGTIWGGGSTDYNSVLKSRLSISKDNSKSQVLLKVNSLQTDDTAIYYCASGPYYYTMDYWGQGTSVTVSS
VL: QIVLTQSPAILSASLGEEITLTCSASSSVTFMHWYQQKSGTSPKLLIYTTSNLASGVPSRFSGSGSGTFYSLTISSVEAEDAADYYCHQWSSYPTFGSGTKLEIKR
Consider B4, for which the immunoreactive fraction in experiment [1] was 43%. For the same molecule, the percentage of bound antibody in experiment [2] was 74.8%; in experiment [3], 98.9%.

Source of the values: patent EP2193147B1.
